Where no end group is shown, it is not given here.
Molecular target: T1, AtsB, anaerobic sulfatase maturating enzyme from Klebsiella pneumoniae, wild type, reconstituted (Klebsiella pneumoniae, UniProt Q9X758 1-395)
T1 sequence (looked up): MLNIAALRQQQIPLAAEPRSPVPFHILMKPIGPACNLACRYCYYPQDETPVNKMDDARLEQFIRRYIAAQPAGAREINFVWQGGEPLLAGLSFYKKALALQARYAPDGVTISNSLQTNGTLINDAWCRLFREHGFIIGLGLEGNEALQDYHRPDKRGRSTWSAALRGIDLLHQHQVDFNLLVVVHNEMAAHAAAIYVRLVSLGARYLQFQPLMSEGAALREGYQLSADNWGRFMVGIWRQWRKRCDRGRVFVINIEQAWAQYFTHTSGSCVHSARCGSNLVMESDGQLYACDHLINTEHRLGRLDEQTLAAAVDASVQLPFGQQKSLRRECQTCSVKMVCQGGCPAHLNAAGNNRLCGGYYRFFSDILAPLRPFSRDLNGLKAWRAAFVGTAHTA
Assay: SEC

Ac-YYTSPMSAPARSMLLTGN [Kp18Ser peptide substrate]
binding result: binds
